{
  "source": "paper PMC4716839",
  "key": {"[1]": {"target": "Rpa heterotrimer (Rpa70/Rpa32/Rpa14) (Mus musculus) (UniProt Q8VEE4+Q62193+Q9CQ71)", "sequence (Q8VEE4 whole entry, chain 1 of 3)": "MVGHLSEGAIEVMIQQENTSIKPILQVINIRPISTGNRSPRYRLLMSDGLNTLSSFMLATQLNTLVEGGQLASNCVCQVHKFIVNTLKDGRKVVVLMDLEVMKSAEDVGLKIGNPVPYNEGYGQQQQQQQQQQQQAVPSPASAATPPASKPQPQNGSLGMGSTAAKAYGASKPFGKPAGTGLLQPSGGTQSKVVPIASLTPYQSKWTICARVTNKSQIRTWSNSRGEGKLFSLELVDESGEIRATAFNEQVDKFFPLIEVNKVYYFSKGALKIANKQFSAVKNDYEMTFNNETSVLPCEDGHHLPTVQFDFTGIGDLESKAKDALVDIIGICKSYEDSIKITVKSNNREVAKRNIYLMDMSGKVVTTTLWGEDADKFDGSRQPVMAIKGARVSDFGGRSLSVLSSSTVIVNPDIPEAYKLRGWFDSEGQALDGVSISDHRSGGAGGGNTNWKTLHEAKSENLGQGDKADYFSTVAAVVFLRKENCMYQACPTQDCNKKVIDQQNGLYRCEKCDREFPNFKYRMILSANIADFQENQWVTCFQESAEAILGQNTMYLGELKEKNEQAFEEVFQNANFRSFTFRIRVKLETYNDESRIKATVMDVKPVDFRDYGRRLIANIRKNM", "sequence (Q62193 whole entry, chain 2 of 3)": "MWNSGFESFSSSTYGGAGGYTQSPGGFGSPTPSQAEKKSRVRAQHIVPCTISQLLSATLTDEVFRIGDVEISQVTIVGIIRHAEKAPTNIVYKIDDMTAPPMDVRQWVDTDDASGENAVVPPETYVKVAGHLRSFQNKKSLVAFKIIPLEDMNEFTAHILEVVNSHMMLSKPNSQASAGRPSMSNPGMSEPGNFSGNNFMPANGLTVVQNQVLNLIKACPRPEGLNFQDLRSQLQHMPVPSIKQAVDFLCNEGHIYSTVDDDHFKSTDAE", "sequence (Q9CQ71 whole entry, chain 3 of 3)": "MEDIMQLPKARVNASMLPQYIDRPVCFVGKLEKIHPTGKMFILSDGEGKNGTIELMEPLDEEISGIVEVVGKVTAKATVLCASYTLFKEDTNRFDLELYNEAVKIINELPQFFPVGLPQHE", "experiment": "bead pull-down", "settings": "Dna2 D278A added after Rpa loading; EMSA: 20 mM Tris-HCl pH 8.0, 80 mM NaCl, 0.3 mM TCEP, 0.2 mg/mL BSA, 2% glycerol, on ice 30 min, 0.075 or 0.3 nM 32P-DNA; 4% native PAGE, 1x TB, 4 C"}, "[2]": {"target": "mouse Rpa heterotrimer (Rpa70, Rpa32, Rpa14) (mouse) (UniProt Q8VEE4)", "sequence (Q8VEE4 whole entry, chain 1 of 3)": "as the sequence (Q8VEE4 whole entry, chain 1 of 3) above", "sequence (Q62193 whole entry, chain 2 of 3, further chain)": "as the sequence (Q62193 whole entry, chain 2 of 3) above", "sequence (Q9CQ71 whole entry, chain 3 of 3, further chain)": "as the sequence (Q9CQ71 whole entry, chain 3 of 3) above"}},
  "data": [
    {"substance": "5'-(dT)26 overhang DNA, biotinylated", "values": [
      {"measurement": "binding signal (% reduction of bound Rpa by Dna2 D278A)", "setting": "[1]", "result": 30}
    ]},
    {"substance": "α1-deleted mouse Dna2 (from UniProt Q6ZQJ5 1-1056) (enzyme)", "values": [
      {"measurement": "nuclease activity: cleavage of the Rpa-coated 5’ stem-loop overhang substrate 5’SL24 (15 nM, 15 nM Rpa), fold reduction compared to intact Dna2", "setting": "[2]", "result": 2, "unit": "fold"}
    ]},
    {"substance": "3'-(dT)26 overhang DNA, biotinylated", "values": [
      {"measurement": "binding signal (% reduction of bound Rpa by Dna2 D278A)", "setting": "[1]", "result": 5}
    ]}
  ]
}
